Laboratory results: US20250152742A1, “COMPOSITIONS AND METHODS FOR NEUROLOGICAL DISEASES” (Trames Bio, Inc., priority 2022, published 2025)

System: engineered chimeric receptor SEQ ID NO: 33 and its mutants (human α7-nAChR ligand binding domain / human GlyRα1 ion pore domain) in Lenti-X 293T cells
Assay: YFP fluorescence quenching anion reporter plate reader assay (percent quench, EC50)
Assay type: cell-based
Settings: for YFP fluorescence quenching using CNL001 (percent quench): receptor named in row; for YFP fluorescence quenching using Facinicline, 30 nM fac: ligand Facinicline 30 nM; for YFP fluorescence quenching using Facinicline, 300 nM fac: ligand Facinicline 300 nM; for YFP fluorescence quenching using Facinicline, 30 uM fac: ligand Facinicline 30 uM; for YFP fluorescence quenching using TC-6987, 1 uM tc6987: ligand TC-6987 1 uM; for YFP fluorescence quenching using TC-6987, 10 uM tc6987: ligand TC-6987 10 uM; for YFP fluorescence quenching using TC-6987, 500 uM tc6987: ligand TC-6987 500 uM; for YFP fluorescence quenching using Varenicline, 3 nM var: ligand Varenicline 3 nM; for YFP fluorescence quenching using Varenicline, 30 nM var: ligand Varenicline 30 nM; for YFP fluorescence quenching using Varenicline, 300 nM var: ligand Varenicline 300 nM; for YFP fluorescence quenching using Varenicline, 500 nM var: ligand Varenicline 500 nM; for YFP fluorescence quenching using Varenicline, 1 uM var: ligand Varenicline 1 uM
How it was run: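 Lenti-X 293T cells co-expressing an anion-quenchable YFP were transiently transfected with receptor DNA, then ligand was added in NaI-substituted buffer (pH 7.2) after 30 min at 37 °C. Fluorescence was read about 2 min; percent quench = mean of last 10 s over 15 s pre-ligand baseline.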

[1] = 1 nM CNL001, first column so headed
[2] = 1 nM CNL001, second column so headed
[3] = 3 nM brd (TC-5619/Bradanicline)
[4] = 10 nM CNL001, first column so headed
[5] = 10 nM CNL001, second column so headed
[6] = 30 nM brd (TC-5619/Bradanicline)
[7] = 50 nM CNL001, first column so headed
[8] = 50 nM CNL001, second column so headed
[9] = 100 nM CNL001, first column so headed
[10] = 100 nM CNL001, second column so headed
[11] = 300 nM brd (TC-5619/Bradanicline)
[12] = 1 uM CNL001, first column so headed
[13] = 1 uM CNL001, second column so headed

B1: CODA807: engineered receptor: Y115D, L131E in SEQ ID NO: 33 (protein)
chain: MRCSPGGVWLALAASLLHVSLQGEFQRKLYKELVKNYNPLERPVANDSQPLTVYFSLSLLQIMDVDEKNQVLTTNIWLQMSWTDHYLQWNVSEYPGVKTVRFPDGQIWKPDILLDNSADERFDATFHTNVEVNSSGHCQYLPPGIFKSSCPMDLKNFPMDVQTCKLKFGSWSYGGWSLDLQMQEADISGYIPNGEWDLVGIPGKRSERFYECCKEPYPDVTFTVTMRRRMGYYLIQMYIPSLLIVILSWISFWINMDAAPARVGLGITTVLTMTTQSSGSRASLPKVSYVKAIDIWMAVCLLFVFSALLEYAAVNFVSRQHKELLRFRRKRRHHKSPMLNLFQEDEAGEGRFNFSAYGMGPACLQAKDGISVKGANNSNTTNPPPAPSKSPEEMRKLFIQRAKKIDKISRIGFPMAFLIFNMFYWIIYKIVRREDVHNQ
modifications: synthetic sequence of chimeric LGIC
- YFP fluorescence quenching using CNL001 (percent quench) [1]: 0.885%
- YFP fluorescence quenching using CNL001 (percent quench) [2]: −1.707%
- YFP fluorescence quenching using TC-5619/Bradanicline (percent quench) (1 nM brd (TC-5619/Bradanicline)): −1.52%
- YFP fluorescence quenching using TC-5619/Bradanicline (percent quench) [3]: −5.35%
- YFP fluorescence quenching using CNL001 (percent quench) [4]: −0.567%
- YFP fluorescence quenching using CNL001 (percent quench) [5]: 0.043%
- YFP fluorescence quenching using TC-5619/Bradanicline (percent quench) (10 nM brd (TC-5619/Bradanicline)): −3.49%
- YFP fluorescence quenching using TC-6683 (percent quench) (30 nM TC-6683): −26.801%
- YFP fluorescence quenching using TC-5619/Bradanicline (percent quench) [6]: −2.16%
- YFP fluorescence quenching using CNL001 (percent quench) [7]: 5.141%
- YFP fluorescence quenching using CNL001 (percent quench) [8]: 9.409%
- YFP fluorescence quenching using ABT-126 (percent quench) (50 nM abt (ABT-126)): −1.68%
- YFP fluorescence quenching using CNL001 (percent quench) [9]: 9.796%
- YFP fluorescence quenching using CNL001 (percent quench) [10]: 11.009%
- YFP fluorescence quenching (percent quench) (100 nM CNL002): −5.71%
- YFP fluorescence quenching using ABT-126 (percent quench) (100 nM abt (ABT-126)): −2.25%
- YFP fluorescence quenching using AZD-0328 (percent quench) (100 nM azd0328): 24.49%
- YFP fluorescence quenching using TC-5619/Bradanicline (percent quench) (100 nM brd (TC-5619/Bradanicline)): 4.18%
- YFP fluorescence quenching using TC-6683 (percent quench) (300 nM TC-6683): −25.363%
- YFP fluorescence quenching using ABT-126 (percent quench) (300 nM abt (ABT-126)): −2.37%
- YFP fluorescence quenching using AZD-0328 (percent quench) (300 nM azd0328): 45.34%
- YFP fluorescence quenching using TC-5619/Bradanicline (percent quench) [11]: 70.2%
- YFP fluorescence quenching using CNL001 (percent quench) [12]: 27.914%
- YFP fluorescence quenching using CNL001 (percent quench) [13]: 29.109%
- YFP fluorescence quenching (percent quench) (1 uM CNL002): 13.03%
- YFP fluorescence quenching using ABT-126 (percent quench) (1 uM abt (ABT-126)): 3.68%
- YFP fluorescence quenching using TC-5619/Bradanicline (percent quench) (1 uM brd (TC-5619/Bradanicline)): 43.11%
- YFP fluorescence quenching using TC-6683 (percent quench) (3 uM TC-6683): −23.651%
- YFP fluorescence quenching (percent quench) (10 uM ach (acetylcholine)): 15.45%
- YFP fluorescence quenching (percent quench) (30 uM CNL002): 25.2%
- YFP fluorescence quenching using TC-6683 (percent quench) (30 uM TC-6683): −26.235%
- YFP fluorescence quenching using AZD-0328 (percent quench) (30 uM azd0328): 71.21%
- YFP fluorescence quenching using TC-6683 (percent quench) (100 uM TC-6683): −24.182%
- YFP fluorescence quenching (percent quench) (100 uM ach (acetylcholine)): 13.77%
- YFP fluorescence quenching (percent quench) (1 mM ach (acetylcholine)): 27.42%
- YFP fluorescence quenching (percent quench) (3 mM ach (acetylcholine)): 53.62%
- YFP fluorescence quenching using Facinicline, 30 nM fac: 45.76
- YFP fluorescence quenching using Facinicline, 100 nM fac (ligand Facinicline 100 nM): 63.92
- YFP fluorescence quenching using Facinicline, 300 nM fac: 79.43
- YFP fluorescence quenching using Facinicline, 10 uM fac (ligand Facinicline 10 uM): 80.1
- YFP fluorescence quenching using Facinicline, 30 uM fac: 84.91
- YFP fluorescence quenching using TC-6987, 1 uM tc6987: 36.07
- YFP fluorescence quenching using TC-6987, 10 uM tc6987: 31.35
- YFP fluorescence quenching using TC-6987, 500 uM tc6987: 28.18

B2: CODA952: engineered receptor: Y140I in SEQ ID NO: 33 (protein)
chain: MRCSPGGVWLALAASLLHVSLQGEFQRKLYKELVKNYNPLERPVANDSQPLTVYFSLSLLQIMDVDEKNQVLTTNIWLQMSWTDHYLQWNVSEYPGVKTVRFPDGQIWKPDILLYNSADERFDATFHTNVLVNSSGHCQILPPGIFKSSCPMDLKNFPMDVQTCKLKFGSWSYGGWSLDLQMQEADISGYIPNGEWDLVGIPGKRSERFYECCKEPYPDVTFTVTMRRRMGYYLIQMYIPSLLIVILSWISFWINMDAAPARVGLGITTVLTMTTQSSGSRASLPKVSYVKAIDIWMAVCLLFVFSALLEYAAVNFVSRQHKELLRFRRKRRHHKSPMLNLFQEDEAGEGRFNFSAYGMGPACLQAKDGISVKGANNSNTTNPPPAPSKSPEEMRKLFIQRAKKIDKISRIGFPMAFLIFNMFYWIIYKIVRREDVHNQ
modifications: synthetic sequence of chimeric LGIC
- YFP fluorescence quenching using CNL001 (percent quench) [1]: 0.368%
- YFP fluorescence quenching using CNL001 (percent quench) [2]: −1.976%
- YFP fluorescence quenching using TC-5619/Bradanicline (percent quench) [3]: −2.45%
- YFP fluorescence quenching using CNL001 (percent quench) [4]: −3.923%
- YFP fluorescence quenching using CNL001 (percent quench) [5]: 4.348%
- YFP fluorescence quenching using TC-6683 (percent quench) (30 nM TC-6683): −27.7%
- YFP fluorescence quenching using TC-5619/Bradanicline (percent quench) [6]: 66.97%
- YFP fluorescence quenching using CNL001 (percent quench) [7]: 74.107%
- YFP fluorescence quenching using CNL001 (percent quench) [8]: 75.866%
- YFP fluorescence quenching using ABT-126 (percent quench) (50 nM abt (ABT-126)): −12.34%
- YFP fluorescence quenching using CNL001 (percent quench) [9]: 80.323%
- YFP fluorescence quenching using CNL001 (percent quench) [10]: 81.996%
- YFP fluorescence quenching (percent quench) (100 nM CNL002): 32.58%
- YFP fluorescence quenching using ABT-126 (percent quench) (100 nM abt (ABT-126)): −11.57%
- YFP fluorescence quenching using AZD-0328 (percent quench) (100 nM azd0328): −12.96%
- YFP fluorescence quenching using TC-6683 (percent quench) (300 nM TC-6683): −26.87%
- YFP fluorescence quenching using ABT-126 (percent quench) (300 nM abt (ABT-126)): −5.21%
- YFP fluorescence quenching using AZD-0328 (percent quench) (300 nM azd0328): −13.21%
- YFP fluorescence quenching using TC-5619/Bradanicline (percent quench) [11]: 78.48%
- YFP fluorescence quenching using CNL001 (percent quench) [12]: 83.489%
- YFP fluorescence quenching using CNL001 (percent quench) [13]: 82.208%
- YFP fluorescence quenching (percent quench) (1 uM CNL002): 69.08%
- YFP fluorescence quenching using ABT-126 (percent quench) (1 uM abt (ABT-126)): 3.93%
- YFP fluorescence quenching using TC-6683 (percent quench) (3 uM TC-6683): −31.2%
- YFP fluorescence quenching (percent quench) (10 uM ach (acetylcholine)): −1.97%
- YFP fluorescence quenching (percent quench) (30 uM CNL002): 73.28%
- YFP fluorescence quenching using TC-6683 (percent quench) (30 uM TC-6683): −33.12%
- YFP fluorescence quenching using AZD-0328 (percent quench) (30 uM azd0328): 68.5%
- YFP fluorescence quenching using TC-6683 (percent quench) (100 uM TC-6683): −24.67%
- YFP fluorescence quenching (percent quench) (100 uM ach (acetylcholine)): 2.79%
- YFP fluorescence quenching (percent quench) (1 mM ach (acetylcholine)): 58.81%
- YFP fluorescence quenching (percent quench) (3 mM ach (acetylcholine)): 66.9%
- YFP fluorescence quenching using Facinicline, 30 nM fac: −8.83
- YFP fluorescence quenching using Facinicline, 300 nM fac: 51.6
- YFP fluorescence quenching using Facinicline, 30 uM fac: 71.01
- YFP fluorescence quenching using TC-6987, 1 uM tc6987: 6.03
- YFP fluorescence quenching using TC-6987, 10 uM tc6987: 2.25
- YFP fluorescence quenching using TC-6987, 500 uM tc6987: −0.24
- YFP fluorescence quenching using Varenicline, 3 nM var (first column): −22.522
- YFP fluorescence quenching using Varenicline, 3 nM var (second column): −18.173
- YFP fluorescence quenching using Varenicline, 30 nM var (first column): −15.306
- YFP fluorescence quenching using Varenicline, 30 nM var (second column): −12.832
- YFP fluorescence quenching using Varenicline, 300 nM var (first column): −14.671
- YFP fluorescence quenching using Varenicline, 300 nM var (second column): −17.016
- YFP fluorescence quenching using Varenicline, 500 nM var (first column): −16.713
- YFP fluorescence quenching using Varenicline, 500 nM var (second column): −18.893
- YFP fluorescence quenching using Varenicline, 1 uM var (first column): −15.847
- YFP fluorescence quenching using Varenicline, 1 uM var (second column): −16.236
